Test system: mouse cornea
Experiment: Histology (H&E) of corneal wound closure and re-epithelialization
Format: in vivo
Details: rCAP37 250 ng/ml
Method: FIG. 23 is a histological analysis of corneal wound closure and re-epithelialization in response to CAP37. Corneas of mice were wounded using the Algerbrush II and treated at 0 and 16 hours with rCAP37 (250 ng/ml) or vehicle (normal saline). Whole eye globes were enucleated at 0, 24, and 48 hours post wounding, and sections were stained using hematoxylin and eosin (H&E). Representative images are shown of (A) CAP37-treated wound at 24 hours, (B) vehicle-treated wound at 24 hours, (C) CAP37-treated wound at 48 hours, and (D) vehicle treated wound at 48 hours. The extent of closure and re-epithelialization of wounds was compared with (E) normal unwounded cornea.
Histology: Whole mouse eyes were collected for histology at 0, 6, 16, 24, and 48 hours post wounding and were immediately placed in Prefer fixative (Anatech LTD., Battle Creek, Mich.) for 20 minutes before being transferred to 70% ethanol. Tissues were paraffin-embedded and cut at a thickness of 5 μm, mounted on SUPERFROSTPLUS® slides (Statlab Medical Products, Lewisville, Tex.), and subsequently deparaffinized, rehydrated, and washed in deionized water. Sections were stained with hematoxylin (Leica Microsystems, Buffalo Grove, Ill.) and rinsed twice in deionized water before being washed in Blue Buffer (Leica Microsystems). […]

B1: CAP37: cationic antimicrobial protein of Mr 37 kDa; recombinant CAP37 produced in human embryonic kidney (HEK) 293 cells (protein)
chain: IVGGRKARPRQFPFLASIQNQGRHFCGGALIHARFVMTAASCFQSQNPGVSTVVLGAYDLRRRERQSRQTFSISSMSENGYDPQQNLNDLMLLQLDREANLTSSVTILPLPLQNATVEAGTRCQVAGWGSQRSGGRLSRFPRFVNVTVTPEDQCRPNNVCTGVLTRRGGICNGDGGTPLVCEGLAHGVASFSLGPCGRGPDFFTRVALFRDWIDGVLNNPGP
re-epithelialization vs vehicle, in words (24 hours): greatly accelerated in comparison to the vehicle-treated wounds
structural integrity of the epithelium, in words (48 hours): regained full integrity

Source: patent US11884710B2, “Peptide compounds and methods of use in wound healing” (priority 2013, dated 2024)
